Test results reported in patent publication US20100021448.

Target: T1, I-CreI variant RRN (R44, R68, N70, N75)
T1 chain: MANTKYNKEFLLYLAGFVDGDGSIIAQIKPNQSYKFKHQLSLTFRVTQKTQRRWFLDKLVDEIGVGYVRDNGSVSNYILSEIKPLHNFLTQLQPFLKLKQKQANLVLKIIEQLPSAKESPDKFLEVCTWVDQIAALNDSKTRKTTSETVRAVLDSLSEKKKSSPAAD

B1: I-CreI variant DRN (D44, R68, N70, N75) (protein)
chain: MANTKYNKEFLLYLAGFVDGDGSIIAQIKPNQSYKFKHQLSLTFDVTQKTQRRWFLDKLVDEIGVGYVRDNGSVSNYILSEIKPLHNFLTQLQPFLKLKQKQANLVLKIIEQLPSAKESPDKFLEVCTWVDQIAALNDSKTRKTTSETVRAVLDSLSEKKKSSPAAD
- cleavage of chimeric DNA targets on co-expression: no cleavage of chimeric targets could be detected by co-expression of the same weak mutants
